Test results as given in patent publication EP4471063A1 (Medilink Therapeutics (Suzhou) Co., Ltd., dated 2023).

Legend:
human Her4-His [1] = molecular target: T1, human Her4-His (human, UniProt Q15303 26-649, limits assumed); experiment: ELISA, coated Her4-his, antibody 1000 ng/mL
T1 construct: Bought protein
T1 sequence (looked up): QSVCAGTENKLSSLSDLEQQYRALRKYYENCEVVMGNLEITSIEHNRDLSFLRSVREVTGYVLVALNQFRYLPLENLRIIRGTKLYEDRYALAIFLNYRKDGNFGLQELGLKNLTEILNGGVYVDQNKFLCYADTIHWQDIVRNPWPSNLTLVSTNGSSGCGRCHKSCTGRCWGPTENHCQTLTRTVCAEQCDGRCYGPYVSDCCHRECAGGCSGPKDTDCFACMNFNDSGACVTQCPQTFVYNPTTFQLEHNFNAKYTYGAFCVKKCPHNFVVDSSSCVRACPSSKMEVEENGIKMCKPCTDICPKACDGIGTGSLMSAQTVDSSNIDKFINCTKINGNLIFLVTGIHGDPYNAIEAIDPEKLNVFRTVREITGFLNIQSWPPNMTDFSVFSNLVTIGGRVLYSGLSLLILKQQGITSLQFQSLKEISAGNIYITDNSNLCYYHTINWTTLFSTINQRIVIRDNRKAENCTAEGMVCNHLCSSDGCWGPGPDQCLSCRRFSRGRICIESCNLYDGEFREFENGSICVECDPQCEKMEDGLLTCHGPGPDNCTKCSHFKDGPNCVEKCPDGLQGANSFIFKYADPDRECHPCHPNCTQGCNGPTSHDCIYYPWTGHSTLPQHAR

human EGFR-His [2] = molecular target: T2, human EGFR-His (human, UniProt P00533 25-645); experiment: ELISA, coated EGFR-his, antibody 1000 ng/mL
T2 construct: Bought protein

human Her2-His [3] = molecular target: T3, human Her2-His (human, UniProt P04626 23-652); experiment: ELISA, coated Her2-his, antibody 1000 ng/mL
T3 construct: Bought protein

human Her3-his [4] = molecular target: T4, human Her3-his (human, UniProt P21860 20-643); experiment: ELISA, coated Her3-his, antibody 200 ng/mL
T4 construct: Construct encodes positions 1-643 with its own leader; Expressed in HEK293F, purified on a Ni column; also called human Her3 protein

monkey Her3-his = molecular target: T5, monkey Her3-his (monkey); experiment: ELISA, coated monkey Her3-his, anti-human Fc-HRP
T5 chain: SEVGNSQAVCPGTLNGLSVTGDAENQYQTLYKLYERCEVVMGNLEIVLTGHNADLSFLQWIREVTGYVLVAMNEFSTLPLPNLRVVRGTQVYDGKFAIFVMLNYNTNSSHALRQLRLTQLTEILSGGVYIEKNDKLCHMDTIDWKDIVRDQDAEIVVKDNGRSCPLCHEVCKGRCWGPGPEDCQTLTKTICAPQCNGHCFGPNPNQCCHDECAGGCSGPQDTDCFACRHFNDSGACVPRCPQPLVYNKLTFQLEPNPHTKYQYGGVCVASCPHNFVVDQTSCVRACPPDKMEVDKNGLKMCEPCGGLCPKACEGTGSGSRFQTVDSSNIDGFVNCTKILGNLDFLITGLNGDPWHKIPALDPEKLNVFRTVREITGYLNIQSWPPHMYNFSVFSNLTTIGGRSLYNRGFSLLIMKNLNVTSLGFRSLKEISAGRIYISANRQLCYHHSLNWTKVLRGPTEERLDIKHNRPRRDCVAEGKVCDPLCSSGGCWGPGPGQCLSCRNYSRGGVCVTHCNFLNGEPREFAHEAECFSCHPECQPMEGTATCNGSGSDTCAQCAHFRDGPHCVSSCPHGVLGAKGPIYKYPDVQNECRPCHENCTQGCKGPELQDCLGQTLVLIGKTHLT

human Her4-His [5] = molecular target: T1, human Her4-His; experiment: ELISA, coated Her4-his, antibody 200 ng/mL
human EGFR-His [6] = molecular target: T2, human EGFR-His; experiment: ELISA, coated EGFR-his, antibody 40 ng/mL
human Her4-His [7] = molecular target: T1, human Her4-His; experiment: ELISA, coated Her4-his, antibody 40 ng/mL
human EGFR-His [8] = molecular target: T2, human EGFR-His; experiment: ELISA, coated human EGFR-His
human EGFR-His [9] = molecular target: T2, human EGFR-His; experiment: ELISA, coated EGFR-his, antibody 200 ng/mL
human Her2-His [10] = molecular target: T3, human Her2-His; experiment: ELISA, coated Her2-his, antibody 200 ng/mL
human Her3-his [11] = molecular target: T4, human Her3-his; experiment: ELISA, coated human Her3-his, anti-human Fc-HRP
human Her2-His [12] = molecular target: T3, human Her2-His; experiment: ELISA, coated human Her2-His
[13] = molecular target: T6, human Her3 on tumor cells (human, UniProt P21860 20-1342); experiment: flow cytometry, A549-human Her3 tumor cells
T6 construct: whole, on cells; also called A549-human Her3 cells; T47D cells

rat Her3-his = molecular target: T7, rat Her3-his (rat); experiment: ELISA, coated rat Her3-his, anti-human Fc-HRP
T7 chain: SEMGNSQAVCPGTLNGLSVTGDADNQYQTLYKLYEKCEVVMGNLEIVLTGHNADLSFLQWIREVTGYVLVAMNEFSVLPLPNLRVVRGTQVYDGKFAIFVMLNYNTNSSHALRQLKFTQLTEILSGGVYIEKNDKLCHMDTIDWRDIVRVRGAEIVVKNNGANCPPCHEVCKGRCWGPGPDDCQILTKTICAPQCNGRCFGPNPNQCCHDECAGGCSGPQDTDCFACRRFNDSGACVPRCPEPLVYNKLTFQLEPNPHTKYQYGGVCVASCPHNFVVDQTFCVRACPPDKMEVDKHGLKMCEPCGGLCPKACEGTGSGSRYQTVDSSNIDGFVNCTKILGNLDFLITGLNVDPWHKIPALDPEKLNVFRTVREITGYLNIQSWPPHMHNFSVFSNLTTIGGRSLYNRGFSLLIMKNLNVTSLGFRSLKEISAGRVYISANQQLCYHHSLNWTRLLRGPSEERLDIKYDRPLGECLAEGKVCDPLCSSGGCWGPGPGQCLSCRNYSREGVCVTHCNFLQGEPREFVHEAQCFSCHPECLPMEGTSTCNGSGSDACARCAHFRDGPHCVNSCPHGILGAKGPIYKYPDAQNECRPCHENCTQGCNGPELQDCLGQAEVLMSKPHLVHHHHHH

human Her2-His [14] = molecular target: T3, human Her2-His; experiment: ELISA, coated Her2-his, antibody 40 ng/mL
human Her3-his [15] = molecular target: T4, human Her3-his; experiment: BLI (Fortibio), antibody on ProteinA sensor, human Her3-His in solution, 1:1 model
human Her3-his [16] = molecular target: T4, human Her3-his; experiment: ELISA, coated Her3-his, antibody 40 ng/mL
[17] = molecular target: T6, human Her3 on tumor cells; experiment: cell-based or functional assay
human Her4-His [18] = molecular target: T1, human Her4-His; experiment: ELISA, coated human Her4-His
human Her3-his [19] = molecular target: T4, human Her3-his; experiment: ELISA, coated Her3-his, antibody 1000 ng/mL
[20] = molecular target: T6, human Her3 on tumor cells; experiment: flow cytometry, T47D tumor cells

Binder | OD450 (human Her4-His [1]) | OD450 (human EGFR-His [2]) | OD450 (human Her2-His [3]) | OD450 (human Her3-his [4]) | EC50 (monkey Her3-his) [nM] | OD450 (human Her4-His [5]) | OD450 (human EGFR-His [6]) | OD450 (human Her4-His [7]) | binding result (human EGFR-His [8]) | OD450 (human EGFR-His [9]) | OD450 (human Her2-His [10]) | EC50 (human Her3-his [11]) [nM] | binding result (human Her2-His [12]) | EC50 [13] [nM] | Maximum MFI [13] [MFI] | OD450 (human Her2-His [14]) | Kd (human Her3-his [15]) [nM] | koff (human Her3-his [15]) [s⁻¹] | kon (human Her3-his [15]) [M⁻¹ s⁻¹] | OD450 (human Her3-his [16]) | further results
antibody 202-3-1 (antibody, human IgG1, kappa, V domains shown) VH: QVQLQESGPGLVKPSETLSLTCTVSGGSISGYFWSWIRQSPGKGLEWIGYIHYSGRTNYNPSLKSRVTISVDTSKNQFSLKLSSVTAADTAVYYCARETGGSGHWYFDLWGRGNLVTVSS VL: not shown | 0.05 | 0.05 | 0.048 | 0.344 | 0.0396 | 0.051 | 0.055 | 0.049 | no binding (tested: 1 µg/mL, 200 ng/mL, and 40 ng/mL) | 0.05 | 0.049 | 0.0606 | no binding (tested: 1 µg/mL, 200 ng/mL, and 40 ng/mL) | 2.04 | 55700 | 0.052 | 7.79 | 0.00142 | 182000 | 0.281 | EC50 (rat Her3-his): 0.154 nM; IC50 of inhibition of NRG1-induced AKT phosphorylation in MCF-7 cells (cell blotting, anti-Phospho Akt Ser473) [17]: 1.04 nM; binding result (human Her4-His [18]): no binding (tested: 1 µg/mL, 200 ng/mL, and 40 ng/mL); OD450 (human Her3-his [19]): 0.333
antibody 202-3-2 (antibody, human IgG1, kappa, V domains shown, IgG1/kappa) VH: QVQLQESGPGLVKPSETLSLTCTVSGGSISGYFWSWIRQSPGQGLEWIGYIHYSGRTNYNPSLKSRVTISVDTSKNQFSLQLSSVTAADTAVYYCARETGGSGHWYFDLWGRGNLVTVSS VL: DIQMTQSPSSLSASVGDRVTITCRASQSISSYLIWYQQKPGQAPRLLIYAASSLQSGVPSRFSGSGSGTDFTLTISSLQPEDFATYYCHQSYSTPWTFGQGTKVEIKR | 0.05 | 0.051 | 0.05 | 0.407 | 0.0439 | 0.051 | 0.051 | 0.051 | no binding (tested: 1 µg/mL, 200 ng/mL, and 40 ng/mL) | 0.05 | 0.051 | 0.0782 | no binding (tested: 1 µg/mL, 200 ng/mL, and 40 ng/mL) | 2.59 | 54800 | 0.05 | 6.81 | 0.00124 | 182000 | 0.306 | EC50 (rat Her3-his): 0.225 nM; binding result (human Her4-His [18]): no binding (tested: 1 µg/mL, 200 ng/mL, and 40 ng/mL); OD450 (human Her3-his [19]): 0.427
antibody 202-2-1 (antibody, human IgG1, kappa, V domains shown, Fully human IgG1/kappa from a phage scFv library; expressed in HEK293F; also called Her3mAb) VH: EVQLVESGGGVVQPGRSLRLSCAASGFTFSTYGMHWVRQAPGKGLEWVAVIWYDVSHKYYADSVKGRFTISRDNSKNTLSLQMNSLRAEDTAVYYCARDWGDPDAFDIWGQGTMVTVSS VL: not shown | 0.051 | 0.051 | 0.049 | 0.695 | 0.0159 | 0.051 | 0.051 | 0.05 | no binding (tested: 1 µg/mL, 200 ng/mL, and 40 ng/mL) | 0.051 | 0.05 | 0.021 | no binding (tested: 1 µg/mL, 200 ng/mL, and 40 ng/mL) | 1.15 | 63800 | 0.049 | 13.1 | 0.00218 | 167000 | 0.573 | IC50 of inhibition of NRG1-induced AKT phosphorylation in MCF-7 cells (cell blotting, anti-Phospho Akt Ser473) [17]: 0.243 nM; binding result (human Her4-His [18]): no binding (tested: 1 µg/mL, 200 ng/mL, and 40 ng/mL); OD450 (human Her3-his [19]): 0.61; EC50 [20]: 0.08 nM
